From patent US20140303084A1 (Biogen, published 2014)
Bridge positions count the residues as written; N and C are the ends. Square brackets hold non-standard residues; d marks the D form. Primed or numbered codes have the meaning given here. Ends that are not written are not given here. * marks the point of attachment. Biotin = O=C1N[C@H]2[C@H](CS[C@H]2CCCCC(=O)*)N1; PEG2(3) = PEG2 spacer carrying biotin on Lys; (PEG)4 = polyethylene glycol, 4 units; Dap = NC[C@H](N)C(=O)O

Target: human Factor IXa (human, UniProt P00740 47-191; P00740 227-461)
Assay: cell-based or functional assay

Binder	EC50 [µM], FXa generation assay
KLTCLASYCWLF (Lys(Me3CI) 1) [Lys(Me3CI)-LTCLASYCWLF]	> 1 µM
AQTRVARCCQLF	> 20 µM
MAGMLKLTCFASYCGLFPLVSS	< 0.5 µM
GAQLDKETCLASYCQLFSTVRR	> 20 µM
RCAQSRLPWLVSYCWLFSPYGM	> 5 µM
MEGTRQPTCLASYCSPFQYVAP	> 20 µM
KLTCLGSYCWLF	> 1 µM
RPGGGKVTCQASYCWPFLARAG	> 20 µM
GSCRDQLTCLSSDRWQFFRRVS	> 20 µM
KLTCLAXYCWLF (not fully specified; HSe 7) [KLTCLA-HSe-YCWLF]	> 1 µM
KLTCLXSYCWLF (not fully specified; Dpr 6) [KLTCL-Dpr-SYCWLF]	> 1 µM
KLTCLASQCWLF	< 0.5 µM
LRTQPKVTGLASCSGLVNCSRD	> 20 µM
VGEHRKISCVASNCQLLRSGLA	> 20 µM
{(PEG)27}-KLTCLASYCWLF (cysteine pairing not given here) [(PEG)27-KLTCLASYCWLF]	> 1 µM
KLTCLASYCWYF	< 0.5 µM
GASSDKLTCRTRHCSMFQPLSV	> 20 µM
GCSSDKLTARTRHCSMFQPLSV	> 20 µM
KLTCLASYCWXF (not fully specified; Nle 11) [KLTCLASYCW-Nle-F]	< 0.5 µM
QLTCLASECGLS	> 20 µM
KLTCRASYCQLF	> 1 µM
LQELTKLTCLARSGWLVCNPGY	> 20 µM

Binder	EC50 [µM], FXa generation assay
TLTCRASYCQLF	> 1 µM
QLPCLASYCGLF	> 20 µM
KLTCLASYCWLF-OH (disulfide 4-9 (inferred)) [KLTCLASYCWLF-COOH]	> 1 µM
KLTCLA[Dap]YCWLF (not fully specified; printed as KLTCLA-Dpr-YCWLF; cysteine pairing not given here) [KLTCLA-Dpr-YCWLF]	> 20 µM
NPTCQASYCQLF	> 20 µM
KLTCLASYCQLV	< 0.5 µM
NLTGRASYGWLP	> 20 µM
KLTCLXSYCWLF (not fully specified; Abu 6) [KLTCL-Abu-SYCWLF]	> 1 µM
DSRSAKRKCLASYCWLFGIGQA	> 20 µM
WVPQWKVTCLASCSRLFHGFDA	> 5 µM
KEGFAQLPCLVCQGGLFSPRAI	> 20 µM
EQTCLASYCWLF	> 20 µM
ERYRLDMTCMASQCWQFPPAAG	< 0.5 µM
HMQWGKLPCLASYCWLFWYGIG	> 1 µM
SCVKHELKCLSSDSRLFSAVQR	> 20 µM
KKTCVASFCQMI	> 5 µM
SISGQQLTCRASHCWLNLPWHS	> 20 µM
KLTCLATYCWLF	> 1 µM
QLTCLASYCGGV	> 20 µM
KLKCLSSECQLL	> 20 µM
VAHYGKVTCLASYCQPLPSVGA	> 20 µM
LRQRLAKTCVASYCWLFSLVAS	> 10 µM

Binder	EC50 [µM], FXa generation assay
KLTCLASYCWLF-{(PEG)4-NH2} (cysteine pairing not given here) [KLTCLASYCWLF-(PEG)4-CONH2]	> 1 µM
RRCPGKLQALASYCWLFWTGIA	> 1 µM
KGRCLTSHCWLF	> 20 µM
{Biotin-PEG2(3)}-LYTAWIKCQFARLPGCALSGRW (cysteine pairing not given here) [Biotin-PEG2-LYTAWIKCQFARLPGCALSGRW]	> 10 µM
WHERQQLTCLASYCGLFVGQVA	< 0.5 µM
KLTCLSSYCWLF	> 1 µM
KLTCLASYC[Nal]LF (not fully specified; printed as KLTCLASYC-Nal-LF; cysteine pairing not given here) [KLTCLASYC-Nal-LF]	< 0.5 µM
KLTCLXSYCWLF (not fully specified; Aib 6) [KLTCL-Aib-SYCWLF]	> 20 µM
KLTCLASYCWLF (Lys(Me)2 1) [Lys(Me)2-LTCLASYCWLF]	> 1 µM
{(PEG)27-(PEG)27}-KLTCLASYCWLF (cysteine pairing not given here) [(PEG)27(PEG)27-KLTCLASYCWLF]	> 1 µM
VQRSTQLTCLYGGCRLFGWNYH	> 20 µM
KLTCQASYCWLF	> 1 µM
KLSCQAGQCWVF	> 1 µM
SLADTQLTWLARQYWLSVSEGS	> 20 µM
Ac-KLTCLASYCWLF (not fully specified; cysteine pairing not given here) [Ac-KLTCLASYCWLF]	> 1 µM
XLTCLASYCWLF (not fully specified; Orn 1) [Orn-LTCLASYCWLF]	< 0.5 µM
QQTCQASQCQLF	> 20 µM
MLTCIASYCQLG	> 20 µM
TLDSKNLQCLGSSCWLFSSGLS	> 20 µM
RYQRARLTCLASYCGLLFSMSA	> 15 µM
